Laboratory results as given in US20040171000A1.

Target: human telomerase (active telomerase from HeLa cell nuclear extract; catalytic subunit hTERT) (human) (UniProt O14746)
Test: cell-based or functional assay

Sequence of human telomerase (active telomerase from HeLa cell nuclear extract; catalytic subunit hTERT) (human) (O14746 whole entry): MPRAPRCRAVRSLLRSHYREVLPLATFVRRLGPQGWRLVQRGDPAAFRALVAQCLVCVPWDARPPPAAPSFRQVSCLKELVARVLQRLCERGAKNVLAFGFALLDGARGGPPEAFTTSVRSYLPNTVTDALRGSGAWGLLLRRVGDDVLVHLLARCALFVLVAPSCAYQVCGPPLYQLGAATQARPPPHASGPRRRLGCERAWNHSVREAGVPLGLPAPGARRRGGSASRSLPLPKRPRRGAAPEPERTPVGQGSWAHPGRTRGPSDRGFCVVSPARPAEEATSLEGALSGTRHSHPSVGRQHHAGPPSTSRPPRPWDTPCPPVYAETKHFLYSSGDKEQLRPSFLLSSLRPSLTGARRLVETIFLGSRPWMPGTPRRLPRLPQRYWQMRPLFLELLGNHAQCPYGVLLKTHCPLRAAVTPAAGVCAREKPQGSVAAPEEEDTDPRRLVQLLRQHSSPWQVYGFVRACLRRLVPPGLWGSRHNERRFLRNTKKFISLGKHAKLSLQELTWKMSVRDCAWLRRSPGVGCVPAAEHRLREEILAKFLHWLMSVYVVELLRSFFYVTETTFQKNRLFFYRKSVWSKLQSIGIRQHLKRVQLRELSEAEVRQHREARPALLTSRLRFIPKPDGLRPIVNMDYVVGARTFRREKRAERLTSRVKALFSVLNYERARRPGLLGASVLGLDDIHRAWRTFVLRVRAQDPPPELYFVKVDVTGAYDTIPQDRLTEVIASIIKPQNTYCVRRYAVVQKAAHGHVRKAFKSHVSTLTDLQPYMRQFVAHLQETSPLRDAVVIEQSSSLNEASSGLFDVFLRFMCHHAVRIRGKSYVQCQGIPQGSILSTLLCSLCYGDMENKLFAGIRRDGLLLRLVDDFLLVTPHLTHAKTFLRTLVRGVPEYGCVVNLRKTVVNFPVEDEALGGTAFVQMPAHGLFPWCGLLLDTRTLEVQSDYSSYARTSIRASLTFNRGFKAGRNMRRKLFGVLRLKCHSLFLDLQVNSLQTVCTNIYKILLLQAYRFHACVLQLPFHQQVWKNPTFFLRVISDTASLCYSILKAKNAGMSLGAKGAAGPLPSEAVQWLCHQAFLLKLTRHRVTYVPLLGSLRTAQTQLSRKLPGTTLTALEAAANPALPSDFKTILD

telomerase activity immunoprecipitated by antibodies to SEQ ID No 7: 70%
Substance: EST1-0732 (human EST1 protein of SEQ ID No 2) (from UniProt Q86US8 1-1419)
